In publication PMC2114603:

Biological target: lymphoma 4.1-like protein (68/65-kD phosphoprotein doublet) of mouse T-lymphoma cells (mouse (endogenous in BW 5147))
Assay: co-sedimentation
Details: scale: gp 25 per 68/65-kD protein

Sequence of lymphoma 4.1-like protein (68/65-kD phosphoprotein doublet) of mouse T-lymphoma cells (mouse (endogenous in BW 5147)) (P48193 whole entry): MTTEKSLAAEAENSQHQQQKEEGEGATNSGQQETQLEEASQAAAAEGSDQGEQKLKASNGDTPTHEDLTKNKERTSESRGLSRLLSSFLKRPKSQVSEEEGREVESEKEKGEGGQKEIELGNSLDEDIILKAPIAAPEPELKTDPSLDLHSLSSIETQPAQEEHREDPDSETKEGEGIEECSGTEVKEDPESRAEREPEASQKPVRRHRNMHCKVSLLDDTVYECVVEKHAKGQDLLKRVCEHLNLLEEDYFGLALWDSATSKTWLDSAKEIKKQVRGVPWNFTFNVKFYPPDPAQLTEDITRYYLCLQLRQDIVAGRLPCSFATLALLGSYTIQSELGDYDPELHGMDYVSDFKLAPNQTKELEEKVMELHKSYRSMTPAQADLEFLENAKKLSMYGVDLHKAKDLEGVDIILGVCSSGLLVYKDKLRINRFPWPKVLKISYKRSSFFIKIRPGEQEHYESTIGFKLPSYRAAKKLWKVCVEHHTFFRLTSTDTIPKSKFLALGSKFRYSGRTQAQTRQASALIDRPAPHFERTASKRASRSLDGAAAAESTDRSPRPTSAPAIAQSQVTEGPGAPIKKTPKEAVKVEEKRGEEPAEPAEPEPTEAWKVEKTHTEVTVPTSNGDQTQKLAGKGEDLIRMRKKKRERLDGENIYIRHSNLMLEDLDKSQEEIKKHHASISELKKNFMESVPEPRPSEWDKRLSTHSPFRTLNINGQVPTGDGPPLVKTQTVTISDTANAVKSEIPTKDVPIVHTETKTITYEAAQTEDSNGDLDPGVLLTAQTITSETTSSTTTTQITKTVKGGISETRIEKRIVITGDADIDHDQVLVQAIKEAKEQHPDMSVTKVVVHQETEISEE

stoichiometry N: 4
B1: Thy-1 glycoprotein (gp 25) of mouse T-lymphoma cells (natural protein)
chain: QKVTSLTACLVNQNLRLDCRHENNTKDNSIQHEFSLTREKRKHVLSGTLGIPEHTYRSRVTLSNQPYIKVLTLANFTTKDEGDYFCELQVSGANPMSSNKSISVYRDKLVKC
modifications: glycoprotein ([3H]glucosamine-labelled); 125I-labelled or unlabelled
